Results from patent US20020197661.

Target: T1, Acetyl-Prolyl-Arginyl-Asparaginyl-Lysyl-aminoacetamide coumarin (Ac-PRNK-ACC)
T1 chain: PRNK

B1: bovine factor Xa protease (Promega) (protein)
chain: ANSFLEEVKQGNLERECLEEACSLEEAREVFEDAEQTDEFWSKYKDGDQCEGHPCLNQGHCKDGIGDYTCTCAEGFEGKNCEFSTREICSLDNGGCDQFCREERSEVRCSCAHGYVLGDDSKSCVSTERFPCGKFTQGRSRRWAIHTSEDALDASELEHYDPADLSPTESSLDLLGLNRTEPSAGEDGSQVVRIVGGRDCAEGECPWQALLVNEENEGFCGGTILNEFYVLTAAHCLHQAKRFTVRVGDRNTEQEEGNEMAHEVEMTVKHSRFVKETYDFDIAVLRLKTPIRFRRNVAPACLPEKDWAEATLMTQKTGIVSGFGRTHEKGRLSSTLKMLEVPYVDRSTCKLSSSFTITPNMFCAGYDTQPEDACQGDSGGPHVTRFKDTYFVTGIVSWGEGCARKGKFGVYTKVSNFLKWIDKIMKARAGAAGSRGHSEAPATWTVPPPLPL
  cleavage of the fluorogenic substrate (fluorescence, excitation 355 nm, emission 460 nm): Ac-PRNK-ACC (SEQ. ID. NO: 12) is a specific substrate for tryptase in relation to other blood borne serine proteases
